Patent US20140223606, “COMPOSITIONS AND METHODS COMPRISING SEQUENCES HAVING MEGANUCLEASE ACTIVITY” (PIONEER HI BRED INTERNATIONAL INC, published 2014)
Substitutions are numbered along the chain they refer to.

What was measured:
MHP14+(08) = biological target: T1, MHP14+(08) (artificial); test: cell_activity; maize; yeast 37 C: 4; conditions: tags: SV40 NLS
T1 chain: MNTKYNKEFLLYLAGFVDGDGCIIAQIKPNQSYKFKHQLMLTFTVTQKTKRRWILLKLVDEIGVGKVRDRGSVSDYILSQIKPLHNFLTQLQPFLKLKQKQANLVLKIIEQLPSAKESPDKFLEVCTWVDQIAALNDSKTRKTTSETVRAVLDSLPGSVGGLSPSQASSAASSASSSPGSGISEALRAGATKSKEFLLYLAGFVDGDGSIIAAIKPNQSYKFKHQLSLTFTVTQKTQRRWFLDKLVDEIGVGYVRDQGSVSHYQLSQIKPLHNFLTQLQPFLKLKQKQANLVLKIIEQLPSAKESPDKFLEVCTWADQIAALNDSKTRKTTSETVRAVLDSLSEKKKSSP

MHP14(01) = biological target: T2, MHP14(01) (artificial); test: cell_activity; yeast 37 C; 28 C: 0; conditions: tags: NLS, 6xHis
T2 chain: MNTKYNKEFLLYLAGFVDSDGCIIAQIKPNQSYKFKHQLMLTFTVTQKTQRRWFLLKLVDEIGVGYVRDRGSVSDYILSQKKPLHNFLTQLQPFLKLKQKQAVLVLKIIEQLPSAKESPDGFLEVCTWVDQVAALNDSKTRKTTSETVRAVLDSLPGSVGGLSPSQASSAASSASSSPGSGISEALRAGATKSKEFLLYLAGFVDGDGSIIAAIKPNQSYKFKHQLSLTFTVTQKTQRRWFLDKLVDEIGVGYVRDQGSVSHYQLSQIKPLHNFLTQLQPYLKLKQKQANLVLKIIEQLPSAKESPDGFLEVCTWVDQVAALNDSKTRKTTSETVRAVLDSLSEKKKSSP
Experimental: (§1) A 3 mL culture of selective media (MP Biomedical) was inoculated with a single colony of the yeast screening strain and grown at 30° C. overnight. On the following day, a 50 ml YPD culture (MP Biomedical) was started with 2 ml of the overnight culture and grown at 30° C. overnight. On the following day, the cells were harvested by centrifugation at 4000 rpm. The cells were resuspended in 100 ml ice cold water and centrifuged again. The cells were then washed in 1.2 M sorbitol, followed by treatment with 2 ml of 10 mM Tris pH 8.0, 1 mM EDTA, 100 mM Lithium acetate, 10 mM DTT, 0.6M sorbitol for 30 minutes at 30° C. with shaking. The cells were recovered by centrifugation, washed in 40 ml 1.2M sorbitol and finally resuspended in 250 microliters of 1.2M sorbitol. 50 microliter aliquots were transferred to test tubes on ice. Up to 5 microliters of DNA (100-500 nanograms) were added. The suspension was transferred to a 0.2 cm electroporation cuvette, on ice. Electroporation was performed with a pulse charge at 1.5 kV, 200 ohms, 25 microF (pulse time of 5 milliseconds). 1 mL YPD media (MP Biomedical) was added and the cells were allowed to recover at 30° C. for 1-2 hr. The cells were centrifuged, resuspended in 100 uL 1M sorbitol and plated on selective media lacking leucine and containing 2% galactose. The resulting yeast colonies were incubated at various temperatures ranging from 22 to 37 degrees Celsius for 7-10 days. I-CreI and meganucleases derived from it have maximal activity at or above 37 degrees Celsius. Screening was performed at a range of temperatures from 22 to 37 degrees in order to observe increases in activity at lower temperatures which are relevant to certain biological systems (eg. plant cells, plant cell cultures, etc). At that time the red/white sectoring phenotype, indicative of meganuclease activity was observed. Colonies with increased white sectoring over the parental meganuclease (indicating colonies expressing a meganuclease with increased meganuclease activity), also referred to as “hits” and sometimes completely white, were isolated for further analysis.
(§2) A total of 15 MHP14 variants with increased activity were confirmed in the yeast system (as described in Example 6). Increased activity was observed across a range of temperatures: 28 degrees Celsius, 34 degrees Celsius and 37 degrees Celsius, as shown in Table 11.

MHP14(L14-04) = biological target: T3, MHP14(L14-04) (artificial); test: cell_activity; yeast 37 C; 28 C: 0; conditions: tags: NLS, 6xHis
T3 chain: T1 chain with C22S, Q31R, K50Q, I54F, L56D, K66Y, A316V
Experimental: as §1, §2

MHP14(L14-03) = biological target: T4, MHP14(L14-03) (artificial); test: cell_activity; yeast 37 C; 28 C: 0; conditions: tags: NLS, 6xHis
T4 chain: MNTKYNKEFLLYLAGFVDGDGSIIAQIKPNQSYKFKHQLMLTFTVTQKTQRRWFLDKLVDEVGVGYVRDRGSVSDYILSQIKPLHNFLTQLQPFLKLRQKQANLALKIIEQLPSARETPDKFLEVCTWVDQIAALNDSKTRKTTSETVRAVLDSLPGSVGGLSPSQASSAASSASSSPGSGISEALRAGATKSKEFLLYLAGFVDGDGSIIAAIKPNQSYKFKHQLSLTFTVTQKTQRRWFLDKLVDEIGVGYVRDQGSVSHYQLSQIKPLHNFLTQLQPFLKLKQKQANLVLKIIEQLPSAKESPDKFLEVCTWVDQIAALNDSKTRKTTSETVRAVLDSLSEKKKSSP
Experimental: as §1, §2

MHP14(06) = biological target: T5, MHP14(06) (artificial); test: cell_activity; yeast 37 C; 28 C: 0; conditions: tags: NLS, 6xHis
T5 chain: T2 chain with S19G, C22S, Q50R, V103N, V132I, K244E, G308K
Experimental: as §1, §2

B1: MHP14 recognition site (dsDNA)
DNA 1: CAAACAGATTCACGTCAGATTT
DNA 2: AAATCTGACGTGAATCTGTTTG
- activity (MHP14+(08)): 25 % target site mutation rate
- activity (MHP14(01)): 3 score 0-4
- activity (MHP14(L14-04)): 3 score 0-4
- activity (MHP14(L14-03)): 3 score 0-4
- activity (MHP14(06)): 3.5 score 0-4
